By koff is commonly meant the first-order rate constant of dissociation. Usually kon stands for the rate constant with which the complex forms. The term Kd denotes the free concentration of one partner at which half of the binding sites on the other are occupied at equilibrium, for simple one-to-one binding. In general, EC50 (read off the curve) refers to the concentration giving half of the maximal effect.

In test [1] the target is T1, monomeric recombinant KAAG1 (Homo sapiens (Human), UniProt Q9UBP8 1-84, limits assumed).
T1 construct: Analyte of the Biacore experiment
T1 sequence: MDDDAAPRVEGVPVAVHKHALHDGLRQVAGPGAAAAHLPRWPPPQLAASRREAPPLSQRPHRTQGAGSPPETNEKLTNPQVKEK
The test is described as follows: SPR (Biacore), antibody captured by anti-human Fc, 1:1 fit. Here is the method:
(§1) More precise measurements were conducted using Surface Plasmon Resonance (SPR) in a Biacore instrument. Kinetic analysis was used to compare the affinity of the chimeric 3D3 with the h3D3 as well as with hybrid antibodies encompassing different permutations of the light and heavy chains (see FIG. 18B). Briefly, anti-human Fc was immobilized on the Biacore sensor chip and chimeric or h3D3 was captured on the chip. Different concentrations of monomeric recombinant KAAG1 were injected and the data were globally fitted to a simple 1:1 model to determine the kinetic parameters of the interaction.

Test [2] deals with T1, monomeric recombinant KAAG1. The test is described as follows: SPR (Biacore): antibody captured on immobilised anti-human Fc, monomeric recombinant KAAG1 injected, global 1:1 fit; average KD; humanized light + humanized heavy chain, 'HH'. How it is done:
as §1
For orientation: In SPR one partner is held on a chip, and binding of the other changes the refractive index at the surface.

Test [3] has as its target T2, recombinant Fc-KAAG1 fusion protein (full-length KAAG1) (human, UniProt Q9UBP8 1-84, biotinylated with NHS-biotin (sites not given)).
T2 construct: also called recombinant human KAAG1; not shown: human Fc domain encoded by expression plasmid pYD5; vector-encoded residues between the Fc and the BamHI cloning site of pYD5
T2 sequence: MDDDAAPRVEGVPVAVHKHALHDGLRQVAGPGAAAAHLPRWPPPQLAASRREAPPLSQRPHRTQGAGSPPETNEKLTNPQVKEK
The test is described as follows: ELISA on recombinant Fc-KAAG1. How it is done: The 96-well master plate of monoclonal preparations contained different concentrations of purified anti-KAAG1 Fabs in each well. A second stock master plate was prepared by diluting the Fabs to a final concentration of 10 μg/ml from which all subsequent dilutions were performed for ELISA measurements. To carry out the binding of Fc-KAAG1 to the monoclonal preparations, the Fc-KAAG1 was biotinylated with NHS-biotin (Pierce, Rockford, Ill.) and 10 ng/well was coated in a streptavidin 96-well plate. One nanogram of each Fab monoclonal preparation was added to each well and incubated at room temperature for 30 minutes. Bound antibody was detected with HRP-conjugated mouse anti-kappa light chain antibody in the presence of TMB liquid substrate (Sigma-Aldrich Canada Ltd., Oakville, ON) and readings were conducted at 450 nm in microtiter plate reader.
Since an antibody harboring effector functions was required, the h3D3 was assembled as a human IgG₁. ELISA-based assays were performed to directly compare the ability of the h3D3 […]. The methods used to perform these tests were as described in Example 3 using recombinant Fc-KAAG1.
For orientation: In an ELISA, binding on a coated surface is turned into a signal by an enzyme label.

The target of test [4] is T1, monomeric recombinant KAAG1. The test is described as follows: SPR (Biacore): antibody captured on immobilised anti-human Fc, monomeric recombinant KAAG1 injected, global 1:1 fit; average KD; humanized light + chimeric heavy chain, 'HC'. Here is the method:
as §1

For test [5] the target is unchanged. The test is described as follows: SPR (Biacore): antibody captured on immobilised anti-human Fc, monomeric recombinant KAAG1 injected, global 1:1 fit; average KD; chimeric light + humanized heavy chain, 'CH'. Here is the method: as §1

B1: humanized 3D3 anti-KAAG1 antibody (human IgG1) (antibody, V domains shown)
VH: EVQLVQSGAEVKKPGASVKVSCKASGYIFTDYEIHWVRQAPGQGLEWMGVIDPETGNTAFNQKFKGRVTITADTSTSTAYMELSSLTSEDTAVYYCMGYSDYWGQGTLVTVSS
VL: DIVMTQSPDSLAVSLGERATINCKSSQSLLNSNFQKNFLAWYQQKPGQPPKLLIYFASTRESSVPDRFSGSGSGTDFTLTISSLQAEDVAVYYCQQHYSTPLTFGQGTKLEIKR
notes: The leader residues before them are left out; also called h3D3; HH
As for B1, in test [1], the Ka was 2.28e+09 M⁻¹, the koff was 0.00111 s⁻¹ and the kon came to 2.53e+06 M⁻¹ s⁻¹. In test [2], the Kd amounted to 0.439 nM. For the same molecule, in test [3], the “EC50 (read off the curve)” value is around 0.1 µg/mL.

B2: 3D3 hybrid antibody: humanized light chain expressed with the chimeric heavy chain (antibody, V domains shown)
VH: EVQLQQSVAELVRPGASVTLSCKASGYIFTDYEIHWVKQTPVHGLEWIGVIDPETGNTAFNQKFKGKATLTADISSSTAYMELSSLTSEDSAVYYCMGYSDYWGQGTTLTVSS
VL: DIVMTQSPDSLAVSLGERATINCKSSQSLLNSNFQKNFLAWYQQKPGQPPKLLIYFASTRESSVPDRFSGSGSGTDFTLTISSLQAEDVAVYYCQQHYSTPLTFGQGTKLEIKR
notes: also called HC
With B2, the Kd in test [4] came out at 0.309 nM. In test [1], the Ka is 3.24e+09 M⁻¹, the koff came to 0.00073 s⁻¹ and the kon is 2.36e+06 M⁻¹ s⁻¹.

B3: 3D3 hybrid antibody: chimeric light chain expressed with the humanized heavy chain (antibody, human IgG1, V domains shown)
VH: EVQLVQSGAEVKKPGASVKVSCKASGYIFTDYEIHWVRQAPGQGLEWMGVIDPETGNTAFNQKFKGRVTITADTSTSTAYMELSSLTSEDTAVYYCMGYSDYWGQGTLVTVSS
VL: DIVMTQSPSSLAVSIGQKVTMNCKSSQSLLNSNFQKNFLAWYQQKPGQSPKLLIYFASTRESSIPDRFIGSGSGTDFTLTISSVQAEDLADYFCQQHYSTPLTFGAGTKLELKA
Take B3: the Kd in test [5] came to 0.505 nM. Besides, in test [1], the Ka was 1.98e+09 M⁻¹, the koff amounted to 0.00111 s⁻¹ and the kon turned out to be 2.2e+06 M⁻¹ s⁻¹.

These data come from patent publication US20110223107A1 (ALETHIA BIOTHERAPEUTICS, published 2011).
